Results: PMC6509562, “Properties of the HtrA Protease From Bacterium Helicobacter pylori Whose Activity Is Indispensable for Growth Under Stress Conditions” (Frontiers in Microbiology, 2019)

B1: HtrAEcS210A from Escherichia coli (enzyme, UniProt P0C0V0 27-474, looked up)
chain: AETSSATTAQQMPSLAPMLEKVMPSVVSINVEGSTTVNTPRMPRNFQQFFGDDSPFCQEGSPFQSSPFCQGGQGGNGGGQQQKFMALGSGVIIDADKGYVVTNNHVVDNATVIKVQLSDGRKFDAKMVGKDPRSDIALIQIQNPKNLTAIKMADSDALRVGDYTVAIGNPFGLGETVTSGIVSALGRSGLNAENYENFIQTDAAINRGNAGGALVNLNGELIGINTAILAPDGGNIGIGFAIPSNMVKNLTSQMVEYGQVKRGELGIMGTELNSELAKAMKVDAQRGAFVSQVLPNSSAAKAGIKAGDVITSLNGKPISSFAALRAQVGTMPVGSKLTLGLLRDGKQVNVNLELQQSSQNQVDSSSIFNGIEGAEMSNKGKDQGVVVNNVKTGTPAAQIGLKKGDVIIGANQQAVKNIAELRKVLDSKPSVLALNIQRGDSTIYLLMQ
notes: also called DegP S210A; S/A

Tests used:
[1] = target: HtrAHpS221A from H. pylori strain N6 (Helicobacter pylori strain N6) (UniProt B5Z6H5); assay: AUC
[2] = target: the molecule itself; assay: SEC; Superose 12HR 10/30, 300 mM NaCl, 50 mM Na-phosphate pH 6.5 or 8.0, room temperature; refolded HtrA variant 41 uM without substrate

Molecule	content of peak 1 (6.1 S) at 0.65 mg/ml [1] [%]	content of peak 1 (6.1 S) at 1.6 mg/ml [1] [%]	content of peak 1 (6.1 S) at 3.3 mg/ml [1] [%]	content of peak 2 (8.9 S) at 3.3 mg/ml [1] [%]	content of peak 3 (10.3 S) at 1.6 mg/ml [1] [%]	content of peak 3 (10.6 S) at 3.3 mg/ml [1] [%]	content of peak 3 (11.0 S) at 0.65 mg/ml [1] [%]	content of peak 4 (12.4 S) at 3.3 mg/ml [1] [%]	content of peak 4 (13.0 S) at 1.6 mg/ml [1] [%]	content of peak 5 (15.7 S) at 3.3 mg/ml [1] [%]	content of peak 5 (15.8 S) at 0.65 mg/ml [1] [%]	content of peak 5 (15.8 S) at 1.6 mg/ml [1] [%]	content of peak 6 (19.5 S) at 3.3 mg/ml [1] [%]	content of peak 6 (19.9 S) at 0.65 mg/ml [1] [%]	content of peak 6 (19.9 S) at 1.6 mg/ml [1] [%]	content of peak 7 (22.8 S) at 3.3 mg/ml [1] [%]	content of peak 8 (24.5 S) at 0.65 mg/ml [1] [%]	content of peak 8 (25.6 S) at 1.6 mg/ml [1] [%]	content of peak 8 (25.8 S) at 3.3 mg/ml [1] [%]	stoichiometry N [2]
HtrAHpS221A from H. pylori strain N6 (from UniProt B5Z6H5 1-476) (enzyme)	38	38	38	3.4	8.8	5.1	12	3.8	3.2	9	8.1	7.9	28	29	30	3.1	4.8	5.9	3.6	–
B1	–	–	–	–	–	–	–	–	–	–	–	–	–	–	–	–	–	–	–	6
